# B1: hmpA promoter probe (dsDNA)
# DNA 1: CAATAAATTAGGTTTTGGCATGCAATCTGCTCATTAAGAAGGCTTGTGTAGAGTGGCTCA
# DNA 2: TGAGCCACTCTACACAAGCCTTCTTAATGAGCAGATTGCATGCCAAAACCTAATTTATTG
# B2: tcpP promoter probe (dsDNA)
# DNA 1: GCAATTAAGTTCTCATTATCAACTGCAGAATTAGATTGCAAATAATTATATTAAAAAAAA
# DNA 2: TTTTTTTTAATATAATTATTTGCAATCTAATTCTGCAGTTGATAATGAGAACTTAATTGC
# Target: AphB C235S-His6 (Vibrio cholerae, UniProt Q9KT56 1-299, C235S)
# Assay: EMSA; 0-2 uM protein; affinity similar to wild type; 20 nM DNA, 10 mM Tris-HCl pH 7.5, 1 mM EDTA, 50 mM KCl, 100 ug/ml BSA, 10 ug/ml poly dI-dC, 100 mM DTT when indicated; 20 min at 25 C; 5% PAGE in 0.5X TAE
# Conditions: protein: recombinant; chain copies: 2; label: 5'-biotin; blunt
row,Binder,binding result
1,B1,binds
2,B2,binds

# — publication PMC9246220
